Drawing on patent US10344068B2, “Natriuretic polypeptides” (priority 2011, dated 2019), this text covers cGMP production for seven molecules.

Assay type in all cases: cell-based
The test system of test [1] is Human cardiac fibroblasts. In words: cGMP production in human cardiac fibroblasts (competitive RIA cGMP kit). As to conditions: human cardiac fibroblasts (CFs); 10^-6 M, 10^-8 M or 10^-10 M of NP or cANG for 10 minutes. The method, then:
cANG was custom-synthesized to have the sequence set forth in FIG. 4 and confirmed by high performance liquid chromatography and mass spectroscopy to have a molecular weight of 3080.6 Da. Human cardiac fibroblasts (CFs; ScienCell, San Diego, Calif.) were cultured in the manufacturer's fibroblast media (ScienCell, San Diego, Calif.) supplemented with fibroblast growth serum (FGS), fetal bovine serum (FBS), and Pen/Strep. Cells were treated at 80-90% confluency. Only cell passages 1 through 4 were used for experiments. To perform a cyclic GMP assay, the cells were treated as described previously (Huntley et al., J. Cell. Physiol., 209(3):943-9 (2006)). Briefly, cells were incubated in Hank's balanced salt solution (Invitrogen, Carlsbad, Calif.) containing 20 mmol/L N-[2-hydroxyethyl]piperazine-N′[2-ethanesulfonic acid], 0.1% bovine serum albumin, and 0.5 mmol/L 3-isobutyl-1-methylzanthine (Sigma, St. Louis, Mo.). Treated cells received 10^−6 M, 10^−8M, or 10^−10 M of NP or cANG for 10 minutes. Cells were lysed in 6% TCA and sonicated for 10 minutes. The samples were ether extracted four times in four volumes of ether, dried, and reconstituted in […] of cGMP assay buffer.
The samples were assayed using a competitive RIA cGMP kit (Perkin-Elmer, Boston, Mass.). Briefly, samples and standards were incubated with […] anti-human cGMP polyclonal antibody and I^125-antigen for 18 hours. Cyclic GMP assay buffer was added to the samples, and they were centrifuged for 20 minutes at 2500 rpm. The free fraction was aspirated off, and the bound fraction was counted and concentrations determined. Samples were corrected for dilution factors and protein concentration, and values were expressed as pmoles/mL.

For a further test, the target named is T1, NPR-B (GC-B) (Homo sapiens, UniProt P20594).
T1 construct: expressed in transfected cells; host or cells: HEK 293
T1 sequence (P20594 23-1047): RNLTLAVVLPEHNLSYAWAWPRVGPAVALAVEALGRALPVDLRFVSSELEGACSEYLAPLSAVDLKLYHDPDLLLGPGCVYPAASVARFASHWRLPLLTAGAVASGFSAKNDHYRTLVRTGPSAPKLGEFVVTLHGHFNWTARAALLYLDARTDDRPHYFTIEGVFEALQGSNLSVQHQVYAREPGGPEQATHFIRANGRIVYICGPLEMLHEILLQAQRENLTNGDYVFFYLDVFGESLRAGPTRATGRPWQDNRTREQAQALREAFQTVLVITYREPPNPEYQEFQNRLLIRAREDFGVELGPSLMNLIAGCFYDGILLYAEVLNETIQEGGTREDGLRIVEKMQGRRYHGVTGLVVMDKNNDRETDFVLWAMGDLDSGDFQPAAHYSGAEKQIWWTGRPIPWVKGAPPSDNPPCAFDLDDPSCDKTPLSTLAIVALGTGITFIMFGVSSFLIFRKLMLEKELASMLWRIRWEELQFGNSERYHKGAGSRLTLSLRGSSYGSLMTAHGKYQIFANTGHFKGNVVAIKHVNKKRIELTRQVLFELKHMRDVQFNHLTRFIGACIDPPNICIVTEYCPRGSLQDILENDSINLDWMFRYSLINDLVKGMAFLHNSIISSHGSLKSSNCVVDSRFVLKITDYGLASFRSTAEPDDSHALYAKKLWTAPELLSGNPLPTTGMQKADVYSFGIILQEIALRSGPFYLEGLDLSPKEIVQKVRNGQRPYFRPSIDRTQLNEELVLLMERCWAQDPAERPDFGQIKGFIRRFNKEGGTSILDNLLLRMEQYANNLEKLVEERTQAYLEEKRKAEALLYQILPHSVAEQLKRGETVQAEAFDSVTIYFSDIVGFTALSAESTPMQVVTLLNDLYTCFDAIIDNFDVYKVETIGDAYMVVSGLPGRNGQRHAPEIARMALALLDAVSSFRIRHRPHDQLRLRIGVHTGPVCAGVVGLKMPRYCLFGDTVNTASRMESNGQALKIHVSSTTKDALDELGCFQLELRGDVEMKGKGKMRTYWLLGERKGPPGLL
In words: cGMP production in HEK 293 cells stably transfected to express NPR-B (GC-B). As to conditions: NPR-B+ HEK 293 cells; 10^-10 M, 10^-8 M or 10^-6 M for 10 minutes. On the procedure:
(§1) HEK 293 cells were stably transfected to express either NPR-A (GC-A) or NPR-B (GC-B) using Lipofectamine (Invitrogen, Grand Island, N.Y.). Transfected cells were maintained in Dulbecco's modified Eagle's medium supplemented with 10% fetal bovine serum, 100 U/mL penicillin, 100 U/mL streptomycin, and 250 μg/mL G418. The reagents were obtained from Invitrogen (Grand Island, N.Y.).
(§2) The following was performed to carry out cell stimulation and cGMP assays. Cells were plated in 6-well plates and treated as described elsewhere (Tsuruda et al., Circulation Research, 91:1127-1134 (2002)). Briefly, cells were incubated in Hank's balanced salt solution (Invitrogen, Carlsbad, Calif.) containing 20 mmol/L N-[2-hydroxyethyl]piperazine-N′[2-ethanesulfonic acid], 0.1% bovine serum albumin, and 0.5 mmol/L 3-isobutyl-1-methylzanthine (Sigma, St. Louis, Mo.). Treated cells received 10^−10 M, 10^−8M, or 10^−6 M of either BNP-Ang1-7 or Ang1-7BNP for 10 minutes. Cells were lysed in 300 μL 6% TCA and sonicated for 10 minutes. The samples were ether extracted four times in 4 volumes of ether, dried, and reconstituted in 500 μL cGMP assay buffer. The samples were assayed using a competitive RIA cGMP kit (Perkin-Elmer, Boston, Mass.) as described elsewhere (Steiner et al., J. Biol. Chem., 247:1106-1113 (1972)). Samples were corrected for dilution factors and protein concentration, and values were expressed as pmol cGMP/well. There was no cross-reactivity with ANP, BNP, CNP, and Endothelin-1, and less than 0.001 percent cross-reactivity with cAMP, GMP, GDP, ATP, and GTP.

Another test concerns the target T2, NPR-A (GC-A) (Homo sapiens, UniProt P16066).
T2 construct: expressed in transfected cells; host or cells: HEK 293
T2 sequence (P16066 33-1061): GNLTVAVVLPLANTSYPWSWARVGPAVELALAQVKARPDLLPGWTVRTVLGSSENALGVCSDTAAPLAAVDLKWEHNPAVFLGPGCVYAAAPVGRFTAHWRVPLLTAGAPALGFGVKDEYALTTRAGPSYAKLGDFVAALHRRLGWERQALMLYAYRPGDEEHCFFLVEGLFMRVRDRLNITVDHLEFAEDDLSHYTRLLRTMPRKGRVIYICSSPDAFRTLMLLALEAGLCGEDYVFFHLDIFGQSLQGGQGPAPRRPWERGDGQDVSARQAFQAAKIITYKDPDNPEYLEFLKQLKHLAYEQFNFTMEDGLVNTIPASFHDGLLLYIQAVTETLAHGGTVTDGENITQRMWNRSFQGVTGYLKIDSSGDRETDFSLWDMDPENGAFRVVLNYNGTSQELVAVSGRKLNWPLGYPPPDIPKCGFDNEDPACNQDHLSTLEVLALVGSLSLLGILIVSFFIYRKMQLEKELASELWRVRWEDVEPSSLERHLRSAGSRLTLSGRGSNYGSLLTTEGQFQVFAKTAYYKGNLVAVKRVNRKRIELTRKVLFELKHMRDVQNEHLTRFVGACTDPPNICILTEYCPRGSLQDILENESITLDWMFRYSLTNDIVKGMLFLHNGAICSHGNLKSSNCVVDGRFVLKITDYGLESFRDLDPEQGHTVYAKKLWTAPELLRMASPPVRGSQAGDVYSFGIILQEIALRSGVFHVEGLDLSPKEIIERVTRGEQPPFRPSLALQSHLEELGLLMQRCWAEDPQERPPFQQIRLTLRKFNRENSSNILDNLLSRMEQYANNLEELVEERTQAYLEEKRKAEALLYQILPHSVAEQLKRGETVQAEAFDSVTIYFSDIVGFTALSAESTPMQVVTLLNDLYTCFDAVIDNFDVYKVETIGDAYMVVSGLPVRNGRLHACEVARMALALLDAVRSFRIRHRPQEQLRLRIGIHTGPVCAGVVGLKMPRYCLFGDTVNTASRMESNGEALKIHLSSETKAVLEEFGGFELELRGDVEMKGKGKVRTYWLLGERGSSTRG
Nature of the test: cGMP production in HEK 293 cells stably transfected to express NPR-A (GC-A). As to conditions: NPR-A+ HEK 293 cells; 10^-10 M, 10^-8 M or 10^-6 M for 10 minutes. On the procedure: as §1, §2

Ends that are not written are not given here.

As to `CC[C@H](C)[C@@H]1NC(=O)[C@H](CCCNC(=N)N)NC(=O)[C@H](CC(=O)O)NC(=O)[C@H](CCSC)NC(=O)[C@H](CCCNC(=N)N)NC(=O)CNC(=O)CNC(=O)[C@H](Cc2ccccc2)NC(=O)[C@@H](NC(=O)[C@H](CO)NC(=O)[C@H](CO)NC(=O)[C@H](CCCNC(=N)N)NC(=O)[C@H](CCCNC(=N)N)NC(=O)[C@H](CC(C)C)NC(=O)[C@@H](N)CO)CSSC[C@@H](C(=O)N[C@@H](CC(N)=O)C(=O)N[C@@H](CO)C(=O)N[C@@H](Cc2ccccc2)C(=O)N[C@@H](CCCNC(=N)N)C(=O)N[C@@H](Cc2ccc(O)cc2)C(=O)O)NC(=O)CNC(=O)[C@H](CC(C)C)NC(=O)CNC(=O)[C@H](CO)NC(=O)[C@H](CCC(N)=O)NC(=O)[C@H](C)NC(=O)CNC1=O` [ANP, atrial natriuretic peptide], the cGMP production result in test [1] was “resulted in cGMP production”.
Take “Ang1-7BNP: chimeric polypeptide containing an N-terminal Ang-(1-7) and a ring structure and C-terminus of BNP”: the cGMP production entry with NPR-B (GC-B) was “Neither BNP-Ang1-7 nor Ang1-7BNP induced cGMP production”; with NPR-A (GC-A), “induced cGMP production”.
Consider B-type natriuretic peptide [BNP], for which the cGMP production result in test [1] was “resulted in cGMP production”; with NPR-B (GC-B), “Minimal cGMP production”; in the test with NPR-A (GC-A) it was “induced cGMP production”.
Take “BNP-Ang1-7: chimeric polypeptide containing an N-terminus and ring structure of BNP and a C-terminal Ang-(1-7) (SPKMVQGSGCFGRKMDRISSSSGLGCDRVYIHP; not fully specified (bridges); cysteine pairing not given here)”: the cGMP production entry with NPR-B (GC-B) is listed as “Neither BNP-Ang1-7 nor Ang1-7BNP induced cGMP production”; with NPR-A (GC-A), “induced cGMP production”.
Take “C-type natriuretic peptide (GLSKGCFGLKLDRIGSMSGLGC) [CNP]”: the cGMP production result in test [1] was “resulted in cGMP production”.
Regarding angiotensin-(1-7) [Ang1-7], the cGMP production result with NPR-B (GC-B) and with NPR-A (GC-A) was “did not induce cGMP production” throughout.
Consider “cANG: chimeric polypeptide containing an N-terminus and ring structure of CNP and a C-terminal Ang-(1-7) (GLSKGCFGLKLDRIGSMSGLGCDRVYIHP; not fully specified (bridges); cysteine pairing not given here)”, for which the cGMP production entry in test [1] is given as “resulted in cGMP production”.
